Source: PMC10266124 (mAbs, 2023)

Experiments:
Experiment in all cases: electrochemiluminescence
[1] = biological target: SARS-CoV-2 spike protein, Delta *2 (B.1.617.2; AY.4.2) (SARS-CoV-2, Delta B.1.617.2; AY.4.2 …, L452R)
[2] = biological target: SARS-CoV-2 spike protein, Delta *1 (B.1.617.2; AY.4) (SARS-CoV-2, Delta B.1.617.2; AY.4 …, L452R)
[3] = biological target: SARS-CoV-2 spike protein, Delta *3 (B.1.617.2; AY.3; AY.5; AY.6; AY.7; AY.14) (SARS-CoV-2, Delta (B.1.617.2; AY.3; …, L452R)
[4] = biological target: SARS-CoV-2 spike protein, Gamma (P.1) (SARS-CoV-2, Gamma (P.1), E484K)

| Binder | relative binding (% of that to Wuhan spike, from AUCs) [1] | relative binding (% of that to Wuhan spike, from AUCs) [2] | relative binding (% of that to Wuhan spike, from AUCs) [3] | relative binding (% of that to Wuhan spike, from AUCs) [4] |
| --- | --- | --- | --- | --- |
| mAb03 (imdevimab) (antibody, V domains shown) VH: QVQLVESGGGVVQPGRSLRLSCAASGFTFSNYAMYWVRQAPGKGLEWVAVISYDGSNKYYADSVKGRFTISRDNSKNTLYLQMNSLRTEDTAVYYCASGSDYGDYLLVYWGQGTLVTVSS VL: QSALTQPASVSGSPGQSITISCTGTSSDVGGYNYVSWYQQHPGKAPKLMIYDVSKRPSGVSNRFSGSKSGNTASLTISGLQSEDEADYYCNSLTSISTWVFGGGTKLTVL | > 80% | > 80% | > 80% | – |
| mAb21 (S2A4) (antibody, V domains shown) VH: EVQLVESGGGLVQPGGSLRLSCAASGFTFSSYWMNWVRQAPGKGLEWVANIKQDGSEKYYVDSVKGRFTISRDNAKNSLFLQMNSLRAEDTAVYYCARVWWLRGSFDYWGQGTLVTVSS VL: NFMLTQPHSVSESPGKTVTISCTGSSGSIASNYVQWYQQRPGSAPTTVIYEDNQRPSGVPDRFSGSIDSSSNSASLTISGLKTEDEADYYCQSYDSSNHVVFGGGTKLTVL | > 80% | > 80% | > 80% | – |
| mAb26 (4A8) (antibody, V domains shown) VH: EVQLVESGAEVKKPGASVKVSCKVSGYTLTELSMHWVRQAPGKGLEWMGGFDPEDGETMYAQKFQGRVTMTEDTSTDTAYMELSSLRSEDTAVYYCATSTAVAGTPDLFDYYYGMDVWGQGTTVTVSS VL: EIVMTQSPLSSPVTLGQPASISCRSSQSLVHSDGNTYLSWLQQRPGQPPRLLIYKISNRFSGVPDRFSGSGAGTDFTLKISRVEAEDVGVYYCTQATQFPYTFGQGTKVDIK | – | – | – | ≥ 20% |
| mAb27 (H014) (antibody, V domains shown) VH: EVQLVQSGAEVKKPGATVKISCKVSGYSFSNYYIHWVKQAPGKSLEWIGYIDPFNGGTSDNLKFKGAATLTADTSTDTAYMELSSLRSEDTAVYYCARSEYDPYYVMDYWGQGTTVTVSS VL: IVLTQSPFQSVSPKEKVTITCRASQSISSNLHWYQQKPDQSPKLLIKYASQSISGIPSRFSGSGSGTDFTLTINSLEAEDFGIYFCQQTNFWPYIFGQGTKLEIL | > 80% | > 80% | > 80% | – |
